Target: FLAG-HA-tagged full-length wild-type TOE1 (human) (UniProt Q96GM8)
Assay: co-IP; IP-TRAP: lysates of 293T cells transiently expressing FLAG-HA-tagged proteins incubated with anti-FLAG M2 beads at 4°C for 2 h; telomerase in the eluates read by its activity (Q-TRAP)

telomerase activity brought down, relative to FLAG-TCAB1 (fraction of FLAG-TCAB1): 0.33
Substance: active telomerase (endogenous telomerase holoenzyme of 293T cells) (from UniProt O14746 1-1132) (complex)

Source: article PMC6326811
